In the supplement of paper PMC10567573:
± gives the standard deviation.

Assay: protein stability index of a GFP-peptide fusion (GPS, HEK-293T) (PSI 1-6); higher = more stable
[1] = treatment: DMSO, c terminus: a fixed tail appended
[2] = treatment: MLN4924 1 uM, 8 h, c terminus: a fixed tail appended
[3] = treatment: MLN4924 1 uM, 8 h, c terminus: native
[4] = treatment: DMSO, c terminus: native
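Note: 24-mer peptide tiles fused after GFP, lentivirally expressed, FACS-sorted into six equal bins by GFP/DsRed ratio, decoded by Illumina sequencing, PSI is the read-weighted mean bin number.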

Sequence | protein stability index [1] | protein stability index [2] | protein stability index [3] | protein stability index [4]
TSYKPYLNRDEEIIKQLQKGVQQK [DENND6A] | 3.34 ± 0.25 | 3.27 ± 0.34 | – | –
GFTTATEFHQRRSEIIQITTGSKE [RAD51] | 4.22 ± 0.44 | 4.35 ± 0.47 | – | –
NFCKHNGSKNVFSTFRTPAVLFTG [ATL3] | 2.21 ± 0.32 | 2.33 ± 0.13 | – | –
RQNLKLLVEETSCQQNMIQELIET [CEP70] | 3.42 ± 0.16 | 3.43 ± 0.45 | – | –
GEEEAESSISSTSNEQLKVTQEPR [ZMYND11] | 5.59 ± 0.11 | 5.46 ± 0.28 | – | –
SDQVKISEEALRADGFGDNPFYHC [SAT2] | 4.16 ± 0.28 | 4.25 ± 0.24 | – | –
TIPATLLVDHVGSKTFLCIGSSVM [SLC2A12] | 2.69 ± 0.5 | 2.34 ± 0.44 | – | –
HATALVEAFRLKQQLHARYVLNLL [PPEF2] | 2.43 ± 0.38 | 2.6 ± 0.51 | – | –
FPFSLLGLLALAIGLWGLAVKGSL [TSPAN10] | 3.33 ± 0.37 | 3.14 ± 0.27 | – | –
FGIGSEILKNLSQVAMRCRCSSMH [SAT1] | 2.56 ± 0.58 | 2.45 ± 0.48 | – | –
CAIASGSELSESAFGYFITACAVI [SLC29A1] | 3.37 ± 0.67 | 3.12 ± 0.34 | – | –
GYCSNQLAAKALLDQKKQDPRVQD [NET1] | 4.89 ± 0.23 | 4.9 ± 0.21 | – | –
GAERKAALCELLEKETQIIASIGR [IQUB] | 3.21 ± 0.61 | 3.2 ± 0.2 | – | –
WTPLHLACYFGHRQVVQDLLKAGA [OSBPL1A] | 2.61 ± 0.6 | 2.64 ± 0.48 | – | –
LYSMECAFHPLFSLTSGACRLDYR [TCF25] | 2.25 ± 0.72 | 2.38 ± 0.71 | – | –
LTTCTSNVAASNAKLALFYDWLFF [INTS3] | 2.33 ± 0.45 | 2.66 ± 0.54 | – | –
QAGDYSMRVDLRAGDEAVFAQYDS [TNXB] | 4.43 ± 0.42 | 4.2 ± 0.096 | – | –
HRFVEKPQVFVSNKINAGMYILSP [GMPPB] | 2.25 ± 0.21 | 2.29 ± 0.13 | – | –
TGACGEAMAAAEGSSGPAGLTLGR [SEPHS2] | 3.78 ± 0.082 | 3.87 ± 0.055 | – | –
NIKIWLSLRSYLKRRGPQRSVDVV [PHTF1] | 2.43 ± 0.35 | 2.54 ± 0.36 | – | –
PALDWDSVHVPGPHAMTIQELVDY [PTPN9] | 4.08 ± 0.2 | 4.31 ± 0.15 | – | –
GLQSYQQALLRISLDKVQRSLGPR [SERTAD3] | 2.43 ± 0.27 | 2.26 ± 0.36 | – | –
DVKARLEGEIATYRHLLEGEDCKL [KRT36] | 4.22 ± 0.21 | 4.29 ± 0.075 | – | –

Sequence | protein stability index [1] | protein stability index [2] | protein stability index [3] | protein stability index [4]
EAAQVVPDGLGLDEAREEEGDREV [TRIB3] | 5.63 ± 0.15 | 5.43 ± 0.45 | – | –
LKPESSQQPGQDALAVKAGHGYDS [ZBED1] | 5.12 ± 0.33 | 5.22 ± 0.32 | – | –
CLHMFLQDEIIDKSYTPSKIRHA [SNX3] | – | – | 2.77 ± 0.46 | –
MTEEVIVIAKWDYTAQQDQELDIK [NCK2] | 2.92 ± 0.29 | 2.97 ± 0.33 | – | –
ERLQLEYVDVVFANRPDPNTPMEE [KCNAB2] | 4.7 ± 0.23 | 4.75 ± 0.33 | – | –
RFCSEIKSSKYGEGHQAWIVGIVE [SEPHS2] | 2.23 ± 0.21 | 2.12 ± 0.37 | – | –
KAAGSVSKSTQFEYAWCLVRSKYN [FIS1] | 2.24 ± 0.57 | 2.17 ± 0.37 | – | –
LQNTYMGYLDYRKKAIKDLGISPS [GLT8D2] | 2.64 ± 0.24 | 2.91 ± 0.16 | – | –
KFSLLNAKREETKAMESQRAYRFV [SPOPL] | 3.06 ± 0.42 | 3.13 ± 0.23 | – | –
TSCLKKREEMKLKECVSILPRKES [TNFSF13B] | 4.42 ± 0.15 | 4.5 ± 0.15 | – | –
KRLSRFDIEMSMRGDIFERIVHLQ [NLN] | 1.84 ± 0.33 | 2 ± 0.026 | – | –
GNDSFQLQVTEDVNSSIKTFFCPN [CLCN6] | 3.54 ± 0.31 | 3.6 ± 0.26 | – | –
RPQPRGLLGWGYYLIMLPFRFTYY [FAF2] | 3.86 ± 0.18 | 3.48 ± 0.077 | – | –
EEEEEEEEEEDDLSELPPLEDMGQ [FKBP8] | 5.37 ± 0.3 | 5.63 ± 0.12 | – | –
LPVPPTPGLLSLATTSASDSLKPE [TFE3] | 4.87 ± 0.26 | 5.04 ± 0.29 | – | –
KMNDSEGMDPERLKAFNMFVRLFV [NOL4L] | 2.08 ± 0.11 | 2.23 ± 0.26 | – | –
TRGDADMYDLPKKEDALLYQSKGY [EMD] | 4.19 ± 0.14 | 4.38 ± 0.15 | – | –
IVYHPYRPLLQYVQDMGQEDMLLP [CCNC] | 2.25 ± 0.57 | 1.93 ± 0.34 | – | –
MAMAVMLYYSNFVLALEERFGVRP [MFSD9] | 3.3 ± 0.47 | 3.41 ± 0.49 | – | –
PSAALTTMQLFSKQNPSRQEVTKL [FBXO28] | 4.16 ± 0.37 | 4.37 ± 0.23 | – | –
QPPLTYKRFQTLISKMEPLEIPVE [CRY1] | 2.97 ± 0.39 | 2.79 ± 0.34 | – | –
LHHVKTMWYPEIKHFCPRAPVILV [RHOBTB2] | 2.65 ± 0.58 | 2.58 ± 0.87 | – | –
SLAETECRYATQLQQIQGLIGGLE [KRT15] | 2.83 ± 0.24 | 2.91 ± 0.32 | – | –

Sequence | protein stability index [1] | protein stability index [2] | protein stability index [3] | protein stability index [4]
LDPSSGAIHVLGPIDFEESRFYEI [PCDHGC5] | 2.27 ± 0.2 | 2.25 ± 0.26 | – | –
LDDSTVARELAITDSEHSDAEVSC [RETREG3] | 5.52 ± 0.23 | 5.47 ± 0.24 | – | –
DIAAGEELLYDYGDRSKASIEAHP [KMT5A] | 5.09 ± 0.2 | 5.28 ± 0.19 | – | –
AQIDQYVGLVTNQLSHIKAKIRAK [RTN2] | 2.7 ± 0.3 | 2.75 ± 0.28 | – | –
KLDQLDQDIENALSTSSSPSGTPT [DLC1] | 5.2 ± 0.19 | 5.35 ± 0.27 | – | –
DGSDFQHRERVAMHYQMSVTLKYE [JAGN1] | 2.62 ± 0.26 | 2.87 ± 0.24 | – | –
PKKDLEDGEVPQHAGKKGKLSEHL [BRD3] | 5.18 ± 0.26 | 5.3 ± 0.26 | – | –
RLVELAGQSLLKDEALAIAALELL [PRAME] | 2.17 ± 0.47 | 2.02 ± 0.44 | – | –
SALQSLLQHLIGLSNLTHVLYPVP [PRAME] | 3.36 ± 0.28 | 3.2 ± 0.16 | – | –
SQKVLGLNEDPLKWWSDRLALFPL [ZBED1] | – | 2.14 ± 0.63 | – | –
WTNRLCHQEMGSKKTVTQEDRGW [SPAG8] | – | – | 2.79 ± 0.41 | 3.08 ± 0.64
SNDGARRQFEFYLEEMILPLMVAS [BTBD10] | 2.25 ± 0.078 | 2.2 ± 0.073 | – | –
LEDAAGGDSASEEKSGSAEPFVLP [FBXO34] | 5.46 ± 0.37 | 5.34 ± 0.33 | – | –
RLIRELAEFEKLSDQVKISEEALR [SAT2] | 3.16 ± 0.35 | 3.43 ± 0.3 | – | –
LTADTKEVTASQEARGLRLSDLED [IRX6] | 5.37 ± 0.32 | 5.35 ± 0.12 | – | –
DVLAHQVPNAKKLRRKEQLWEKLA [NOP53] | 2.84 ± 0.36 | 3.09 ± 0.29 | – | –
HELVWAKMKGFGFWPAKVMQKEDN [ZMYND11] | 3.06 ± 0.37 | 3.09 ± 0.47 | – | –
RYDPQTNEWRMVASMSKRRCGVGV [KLHL20] | 2.71 ± 0.16 | 2.75 ± 0.3 | – | –
LPVRPQTNALIGGPMPMSMPNVMT [CLINT1] | 3.33 ± 0.11 | 3.38 ± 0.18 | – | –
TAVGAILAGGLCVGIYATNSAEAC [ACSBG2] | 2.35 ± 0.12 | 2.84 ± 0.75 | – | –
LDVGATEGQDLQHISNQKMPTGPP [DRICH1] | 5.18 ± 0.094 | 5.21 ± 0.091 | – | –
LGSAGAQYEKYSFRGFPPEDLMPL [P3H4] | 2.87 ± 0.52 | 2.86 ± 0.17 | – | –
LNRATQSIERSHRIATETDQIGSE [VTI1B] | 5.44 ± 0.32 | 5.34 ± 0.11 | – | –

Sequence | protein stability index [1] | protein stability index [2] | protein stability index [3] | protein stability index [4]
CRDGEVLLRLSKHGPGHETPMTIP [ACSBG2] | 2.62 ± 0.4 | 2.66 ± 0.63 | – | –
YKGELFDKTPVLLTDYPVDLDEIA [MYORG] | 3.73 ± 0.28 | 3.75 ± 0.16 | – | –
MEKKSKPKNSVWKRLKSPFRKKKD [RIT1] | 3.69 ± 0.12 | 3.88 ± 0.3 | – | –
KQLEFCFSRENLSKDLYLISQMDS [LARP4] | 2.4 ± 0.2 | 2.33 ± 0.28 | – | –
KKNGLYLSLVLGNVNVTLLSKQAK [TMEM120A] | 2.51 ± 0.64 | 2.57 ± 0.35 | – | –
KAKQEKVSAQYLSEIEMAKAQRDY [FLOT1] | 4.54 ± 0.12 | 4.64 ± 0.18 | – | –
NPALQLILTRTDKTLNKKLGQNK [TOR1AIP2] | – | – | 3.89 ± 0.12 | 3.87 ± 0.16
VSPGGVKLEISTKEVPVVHTETKT [EPB41L3] | 4.88 ± 0.29 | 5 ± 0.3 | – | –
AVVSQMDQEQGSSFQMSEGSEAAV [FAM189A2] | 5.46 ± 0.29 | 5.44 ± 0.17 | – | –
DPAPLWGPPPAQGSPGDGGLQDQV [EMID1] | 5.22 ± 0.27 | 5.2 ± 0.26 | – | –
LSTSSSPSGTPTNLRRHVPDLESG [DLC1] | 4.65 ± 0.26 | 4.7 ± 0.21 | – | –
LESRFQSKSGYLRYSCESRIRSYL [DFFB] | 2.46 ± 0.12 | 2.39 ± 0.24 | – | –
KYMPHLCQDSSGEVSCQCQLHPPR | 2.76 ± 0.58 | 3.6 ± 0.9 | – | –
LGWAQPCDVWSIGCILFEYYRGFT [CLK3] | 3.31 ± 0.71 | 2.93 ± 1.5 | – | –
RKISSLSFTLEEEEEGGEEEEEAA [FAM50A] | 5.53 ± 0.26 | 5.33 ± 0.26 | – | –
TDLAQQQGGGNGQQQQAMSFAILR [KCNA4] | 3.96 ± 0.1 | 3.81 ± 0.35 | – | –
EANEEFALRVQQLVAKELGQTGTR [AUP1] | 3.87 ± 0.35 | 3.99 ± 0.45 | – | –
PQSPDFLDITNPKAVLENALRNFA [UFD1] | 2.86 ± 0.35 | 2.55 ± 0.57 | – | –
CVKNELLPSHPLELSEKNFQLNQD [POMP] | 4.42 ± 0.1 | 4.57 ± 0.14 | – | –
IFSFLPAPDRLRASASCSHWRECL [FBXO33] | 2.41 ± 0.28 | 2.07 ± 0.38 | – | –
GEAGWGAGEGRLGHKRKQPLPKRV [FOXJ1] | 4.5 ± 0.16 | 4.59 ± 0.26 | – | –
